In PMC11645210:

Molecular target: Shaanxi2011 RBD (bat sarbecovirus Shaanxi2011)
Assay: SPR

VIR-7229 Fab fragment
Kd: 185 nM
koff: 0.00985 s⁻¹
kon: 53500 M⁻¹ s⁻¹
